Results reported in patent US20170298119A1.

Biological target: recombinant FcRn protein (Homo sapiens (Human)) (UniProt P55899)
Experiment: BLI (Octet): antibody on anti-CH1 biosensors, recombinant FcRn at pH 6.0; fold change against wild type Motavizumab (p-1342)

recombinant FcRn protein (Homo sapiens (Human)), sequence (P55899 24-297 limits assumed, chain 1 of 2): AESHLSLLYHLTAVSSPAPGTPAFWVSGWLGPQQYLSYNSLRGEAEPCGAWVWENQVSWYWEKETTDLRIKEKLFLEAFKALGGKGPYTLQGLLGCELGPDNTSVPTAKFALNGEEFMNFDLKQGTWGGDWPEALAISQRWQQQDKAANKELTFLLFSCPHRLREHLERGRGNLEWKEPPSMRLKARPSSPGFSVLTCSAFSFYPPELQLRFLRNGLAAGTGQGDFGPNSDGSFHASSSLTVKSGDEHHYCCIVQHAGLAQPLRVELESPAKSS
recombinant FcRn protein (Homo sapiens (Human)), sequence (beta, as listed by the source limits assumed, chain 2 of 2): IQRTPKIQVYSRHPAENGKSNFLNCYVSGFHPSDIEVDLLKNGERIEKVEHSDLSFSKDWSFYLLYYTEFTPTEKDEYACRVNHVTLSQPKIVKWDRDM

LS (antibody)
Kd (fold increase): 9.3 fold
koff (fold decrease): 3.7 fold
kon (fold increase): 2.5 fold
